The values below come from patent publication US20110105394A1 (Novo Nordisk, published 2011).

The assay concerns the target T1, Amylin 3(a) receptor (human calcitonin receptor (CTa) with RAMP-3) (human, UniProt P30988 25-474; O60896 24-148, limits assumed).
T1 sequence (looked up) 1: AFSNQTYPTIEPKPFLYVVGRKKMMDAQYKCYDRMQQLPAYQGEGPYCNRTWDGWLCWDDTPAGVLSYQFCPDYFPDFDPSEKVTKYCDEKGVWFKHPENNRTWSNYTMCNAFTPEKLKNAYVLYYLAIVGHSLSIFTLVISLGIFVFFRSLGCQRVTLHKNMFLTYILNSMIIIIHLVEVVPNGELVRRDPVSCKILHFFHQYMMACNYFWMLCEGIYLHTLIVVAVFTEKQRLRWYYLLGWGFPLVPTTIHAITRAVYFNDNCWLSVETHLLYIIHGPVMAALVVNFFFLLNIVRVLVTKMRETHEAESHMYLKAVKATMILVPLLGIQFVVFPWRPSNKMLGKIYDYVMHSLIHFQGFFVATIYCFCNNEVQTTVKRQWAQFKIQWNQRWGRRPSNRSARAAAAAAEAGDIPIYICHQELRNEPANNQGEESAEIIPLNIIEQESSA
T1 sequence (looked up) 2: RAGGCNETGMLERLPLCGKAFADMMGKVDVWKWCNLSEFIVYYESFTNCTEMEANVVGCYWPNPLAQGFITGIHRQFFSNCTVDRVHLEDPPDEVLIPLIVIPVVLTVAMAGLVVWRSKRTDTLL
The assay is described as follows: cell-based or functional assay.

*1 amine or outer side, *2 acyl side, *3 side chain or, on linkers, in order; H or OH if unused. Bridges are numbered along the chain shown (N, C = ends). Where no end group is shown, it is not given here. The star is where a group is joined. X2 = (S)‑4‑Carboxy‑4‑(19-carboxynonadecanoylamino)butyryl, O=C(O)CCCCCCCCCCCCCCCCCCC(=O)N[C@@H](CCC(=O)*)C(=O)O; C20 diacid = O=C(O)CCCCCCCCCCCCCCCCCCC(=O)*; γGlu = O=C(O)[C@H](CCC(=O)[*:2])N[*:1]; AEEA = NCCOCCOCC(=O)O

B1: N-alpha-[(S)-4-Carboxy-4-(19-carboxynonadecanoylamino)butyryl]-His-His-[Arg1,His17]-pramlintide (peptide)
peptide: HHRCNTATCATQRLANFLHHSSNNFGPILPPTNVGSNTY-NH2
modifications: disulfide 4-9; not fully specified (N-terminus); printed as N-alpha-[(S)-4-Carboxy-4-(19-carboxynonadecanoylamino)butyryl]-His-His-[Arg1,His17]-pramlintide
As to B1, the “Potency Luciferase” value was 90 pM.

B2: N-alpha-[2-(2-{2-[4-(S)-Carboxy-4-(19-carboxynonadecanoylamino)butyrylamino]ethoxy}ethoxy)acetyl]-His-His-[Arg1,Arg17,Gln21]-pramlintide (peptide)
peptide: {C20 diacid-γGlu-AEEA}-HHRCNTATCATQRLANFLRHSSQNFGPILPPTNVGSNTY-NH2
modifications: disulfide 4-9
SMILES: CC[C@H](C)[C@H](NC(=O)[C@@H]1CCCN1C(=O)CNC(=O)[C@H](Cc1ccccc1)NC(=O)[C@H](CC(N)=O)NC(=O)[C@H](CCC(N)=O)NC(=O)[C@H](CO)NC(=O)[C@H](CO)NC(=O)[C@H](Cc1c[nH]cn1)NC(=O)[C@H](CCCNC(=N)N)NC(=O)[C@H](CC(C)C)NC(=O)[C@H](Cc1ccccc1)NC(=O)[C@H](CC(N)=O)NC(=O)[C@H](C)NC(=O)[C@H](CC(C)C)NC(=O)[C@H](CCCNC(=N)N)NC(=O)[C@H](CCC(N)=O)NC(=O)[C@@H](NC(=O)[C@H](C)NC(=O)[C@@H]1CSSC[C@H](NC(=O)[C@H](CCCNC(=N)N)NC(=O)[C@H](Cc2c[nH]cn2)NC(=O)[C@H](Cc2c[nH]cn2)NC(=O)COCCOCCNC(=O)CC[C@H](NC(=O)CCCCCCCCCCCCCCCCCCC(=O)O)C(=O)O)C(=O)N[C@@H](CC(N)=O)C(=O)N[C@@H]([C@@H](C)O)C(=O)N[C@@H](C)C(=O)N[C@@H]([C@@H](C)O)C(=O)N1)[C@@H](C)O)C(=O)N[C@@H](CC(C)C)C(=O)N1CCC[C@H]1C(=O)N1CCC[C@H]1C(=O)N[C@H](C(=O)N[C@@H](CC(N)=O)C(=O)N[C@H](C(=O)NCC(=O)N[C@@H](CO)C(=O)N[C@@H](CC(N)=O)C(=O)N[C@H](C(=O)N[C@@H](Cc1ccc(O)cc1)C(N)=O)[C@@H](C)O)C(C)C)[C@@H](C)O
For B2, the “Potency Luciferase” value turned out to be 100 pM.

B3: N-alpha-[19-carboxynonadecanoyl]-Glu-Lys-[Arg1,His17]-pramlintide (peptide)
peptide: {C20 diacid}-EKRCNTATCATQRLANFLHHSSNNFGPILPPTNVGSNTY-NH2
modifications: disulfide 4-9
SMILES: CC[C@H](C)[C@H](NC(=O)[C@@H]1CCCN1C(=O)CNC(=O)[C@H](Cc1ccccc1)NC(=O)[C@H](CC(N)=O)NC(=O)[C@H](CC(N)=O)NC(=O)[C@H](CO)NC(=O)[C@H](CO)NC(=O)[C@H](Cc1c[nH]cn1)NC(=O)[C@H](Cc1c[nH]cn1)NC(=O)[C@H](CC(C)C)NC(=O)[C@H](Cc1ccccc1)NC(=O)[C@H](CC(N)=O)NC(=O)[C@H](C)NC(=O)[C@H](CC(C)C)NC(=O)[C@H](CCCNC(=N)N)NC(=O)[C@H](CCC(N)=O)NC(=O)[C@@H](NC(=O)[C@H](C)NC(=O)[C@@H]1CSSC[C@H](NC(=O)[C@H](CCCNC(=N)N)NC(=O)[C@H](CCCCN)NC(=O)[C@H](CCC(=O)O)NC(=O)CCCCCCCCCCCCCCCCCCC(=O)O)C(=O)N[C@@H](CC(N)=O)C(=O)N[C@@H]([C@@H](C)O)C(=O)N[C@@H](C)C(=O)N[C@@H]([C@@H](C)O)C(=O)N1)[C@@H](C)O)C(=O)N[C@@H](CC(C)C)C(=O)N1CCC[C@H]1C(=O)N1CCC[C@H]1C(=O)N[C@H](C(=O)N[C@@H](CC(N)=O)C(=O)N[C@H](C(=O)NCC(=O)N[C@@H](CO)C(=O)N[C@@H](CC(N)=O)C(=O)N[C@H](C(=O)N[C@@H](Cc1ccc(O)cc1)C(N)=O)[C@@H](C)O)C(C)C)[C@@H](C)O
With B3, the “Potency Luciferase” value was 70 pM.

B4: N-alpha-[19-carboxynonadecanoyl]-Glu-Lys-Arg-[His17]-pramlintide (peptide)
peptide: {C20 diacid}-EKRKCNTATCATQRLANFLHHSSNNFGPILPPTNVGSNTY-NH2
modifications: disulfide 5-10
SMILES: CC[C@H](C)[C@H](NC(=O)[C@@H]1CCCN1C(=O)CNC(=O)[C@H](Cc1ccccc1)NC(=O)[C@H](CC(N)=O)NC(=O)[C@H](CC(N)=O)NC(=O)[C@H](CO)NC(=O)[C@H](CO)NC(=O)[C@H](Cc1c[nH]cn1)NC(=O)[C@H](Cc1c[nH]cn1)NC(=O)[C@H](CC(C)C)NC(=O)[C@H](Cc1ccccc1)NC(=O)[C@H](CC(N)=O)NC(=O)[C@H](C)NC(=O)[C@H](CC(C)C)NC(=O)[C@H](CCCNC(=N)N)NC(=O)[C@H](CCC(N)=O)NC(=O)[C@@H](NC(=O)[C@H](C)NC(=O)[C@@H]1CSSC[C@H](NC(=O)[C@H](CCCCN)NC(=O)[C@H](CCCNC(=N)N)NC(=O)[C@H](CCCCN)NC(=O)[C@H](CCC(=O)O)NC(=O)CCCCCCCCCCCCCCCCCCC(=O)O)C(=O)N[C@@H](CC(N)=O)C(=O)N[C@@H]([C@@H](C)O)C(=O)N[C@@H](C)C(=O)N[C@@H]([C@@H](C)O)C(=O)N1)[C@@H](C)O)C(=O)N[C@@H](CC(C)C)C(=O)N1CCC[C@H]1C(=O)N1CCC[C@H]1C(=O)N[C@H](C(=O)N[C@@H](CC(N)=O)C(=O)N[C@H](C(=O)NCC(=O)N[C@@H](CO)C(=O)N[C@@H](CC(N)=O)C(=O)N[C@H](C(=O)N[C@@H](Cc1ccc(O)cc1)C(N)=O)[C@@H](C)O)C(C)C)[C@@H](C)O
Turning to B4, the “Potency Luciferase” value was found to be 60 pM.
The figure for {C20 diacid-γGlu}-KCNTATCATQRLANFLHHSSNNFGPILPPTNVGSNTY-NH2 (disulfide 2-7) [N-alpha-[(S)-4-Carboxy-4-(19-carboxynonadecanoylamino)butyryl]-[His17]-pramlintide] is 200 pM.

B5: N-alpha-[(S)-4-Carboxy-4-(19-carboxynonadecanoylamino)butyryl]-Arg-His[Arg1,His17]-pramlintide (peptide)
peptide: X2-RHRCNTATCATQRLANFLHHSSNNFGPILPPTNVGSNTY-NH2
modifications: disulfide 4-9
SMILES: CC[C@H](C)[C@H](NC(=O)[C@@H]1CCCN1C(=O)CNC(=O)[C@H](Cc1ccccc1)NC(=O)[C@H](CC(N)=O)NC(=O)[C@H](CC(N)=O)NC(=O)[C@H](CO)NC(=O)[C@H](CO)NC(=O)[C@H](Cc1c[nH]cn1)NC(=O)[C@H](Cc1c[nH]cn1)NC(=O)[C@H](CC(C)C)NC(=O)[C@H](Cc1ccccc1)NC(=O)[C@H](CC(N)=O)NC(=O)[C@H](C)NC(=O)[C@H](CC(C)C)NC(=O)[C@H](CCCNC(=N)N)NC(=O)[C@H](CCC(N)=O)NC(=O)[C@@H](NC(=O)[C@H](C)NC(=O)[C@@H]1CSSC[C@H](NC(=O)[C@H](CCCNC(=N)N)NC(=O)[C@H](Cc2c[nH]cn2)NC(=O)[C@H](CCCNC(=N)N)NC(=O)CC[C@H](NC(=O)CCCCCCCCCCCCCCCCCCC(=O)O)C(=O)O)C(=O)N[C@@H](CC(N)=O)C(=O)N[C@@H]([C@@H](C)O)C(=O)N[C@@H](C)C(=O)N[C@@H]([C@@H](C)O)C(=O)N1)[C@@H](C)O)C(=O)N[C@@H](CC(C)C)C(=O)N1CCC[C@H]1C(=O)N1CCC[C@H]1C(=O)N[C@H](C(=O)N[C@@H](CC(N)=O)C(=O)N[C@H](C(=O)NCC(=O)N[C@@H](CO)C(=O)N[C@@H](CC(N)=O)C(=O)N[C@H](C(=O)N[C@@H](Cc1ccc(O)cc1)C(N)=O)[C@@H](C)O)C(C)C)[C@@H](C)O
Consider B5, for which the “Potency Luciferase” value was 100 pM.

B6: N-alpha-[(S)-4-Carboxy-4-(19-carboxynonadecanoylamino)butyryl]-Glu-Arg-His-[Arg1,His17]-pramlintide (peptide)
peptide: X2-ERHRCNTATCATQRLANFLHHSSNNFGPILPPTNVGSNTY-NH2
modifications: disulfide 5-10
SMILES: CC[C@H](C)[C@H](NC(=O)[C@@H]1CCCN1C(=O)CNC(=O)[C@H](Cc1ccccc1)NC(=O)[C@H](CC(N)=O)NC(=O)[C@H](CC(N)=O)NC(=O)[C@H](CO)NC(=O)[C@H](CO)NC(=O)[C@H](Cc1c[nH]cn1)NC(=O)[C@H](Cc1c[nH]cn1)NC(=O)[C@H](CC(C)C)NC(=O)[C@H](Cc1ccccc1)NC(=O)[C@H](CC(N)=O)NC(=O)[C@H](C)NC(=O)[C@H](CC(C)C)NC(=O)[C@H](CCCNC(=N)N)NC(=O)[C@H](CCC(N)=O)NC(=O)[C@@H](NC(=O)[C@H](C)NC(=O)[C@@H]1CSSC[C@H](NC(=O)[C@H](CCCNC(=N)N)NC(=O)[C@H](Cc2c[nH]cn2)NC(=O)[C@H](CCCNC(=N)N)NC(=O)[C@H](CCC(=O)O)NC(=O)CC[C@H](NC(=O)CCCCCCCCCCCCCCCCCCC(=O)O)C(=O)O)C(=O)N[C@@H](CC(N)=O)C(=O)N[C@@H]([C@@H](C)O)C(=O)N[C@@H](C)C(=O)N[C@@H]([C@@H](C)O)C(=O)N1)[C@@H](C)O)C(=O)N[C@@H](CC(C)C)C(=O)N1CCC[C@H]1C(=O)N1CCC[C@H]1C(=O)N[C@H](C(=O)N[C@@H](CC(N)=O)C(=O)N[C@H](C(=O)NCC(=O)N[C@@H](CO)C(=O)N[C@@H](CC(N)=O)C(=O)N[C@H](C(=O)N[C@@H](Cc1ccc(O)cc1)C(N)=O)[C@@H](C)O)C(C)C)[C@@H](C)O
As to B6, the “Potency Luciferase” value is 100 pM.

B7: N-alpha-[(S)-4-Carboxy-4-(19-carboxynonadecanoylamino)butyryl]-His-Arg-[His1,His17]-pramlintide (peptide)
peptide: HRHCNTATCATQRLANFLHHSSNNFGPILPPTNVGSNTY-NH2
modifications: disulfide 4-9; not fully specified (N-terminus); printed as N-alpha-[(S)-4-Carboxy-4-(19-carboxynonadecanoylamino)butyryl]-His-Arg-[His1,His17]-pramlintide
Turning to B7, the “Potency Luciferase” value was found to be 50 pM.
